{
  "source": "paper PMC7542363",
  "test": "overnight CpaA digestion, SDS-PAGE",
  "settings": "glycan changed form; control: untreated fetuin",
  "data": [
    {"protein": "fetuin (alpha-2-HS-glycoprotein): asialofetuin (protein) parent chain: MKSFVLLFCLAQLWGCHSIPLDPVAGYKEPACDDPDTEQAALAAVDYINKHLPRGYKHTLNQIDSVKVWPRRPTGEVYDIEIDTLETTCHVLDPTPLANCSVRQQTQHAVEGDCDIHVLKQDGQFSVLFTKCDSSPDSAEDVRKLCPDCPLLAPLNDSRVVHAVEVALATFNAESNGSYLQLVEISRAQFVPLPVSVSVEFAVAATDCIAKEVVDPTKCNLLAEKQYGFCKGSVIQKALGGEDVRVTCTLFQTQPVIPQPQPDGAEAEAPSAVPDAAGPTPSAAGPPVASVVVGPSVVAVPLPLHRAHYDLRHTFSGVASVESSSGEAFHVGKTPIVGQPSIPGGPVRLCPGRIRYFKI", "values": [
      {"measurement": "other: proteolytic processing", "value": "no change"}
    ]}
  ]
}
